Measured values published in article PMC6658569.

System: PurR (Escherichia coli K12?)
Assay: MST
Settings: panel assigned by order of figure text (h before i); EMSA: binding buffer 250 mM Tris pH 6.8, 150 mM NaCl, 5 mM EDTA, 10 mM DTT, 50% glycerol; 8% PAGE in 20 mM Tris-borate, 1 mM EDTA pH 8.0, 4 C, 80 V, EB stain …

kbl promoter (208 bp)
Kd: 7.11 µM

glyA promoter (212 bp)
Kd: 239 µM
